B1: unnamed (protein)
chain: MERHNSRRRWGMGLGLLLLAASAHAQYQKGPDPTSASLNASSGPFSVATSSVSSLAAVGFGSGTIYYPTTAGSYAVLAICPGFTATESSIAWLGRRIATHGFVVITINTDSTLDQPPSRATQLMAALRHVTESSSATVRSRVDASRRGVAGHSMGGGGTLYAARDNPSLKAAVPLTAWSTTKTFSSMQVPTLVVGAENDSIASVNSHSIPFYNGLPGSLDKAYAELNGASHFAPNTTNTPIGRYSVAWVKRFMDEDTRYSPFLCGAPHQSYA
B2: unnamed (protein)
chain: MAKFTGAAQFLKASMAIGAIVLSAAASAQTNPYQRGPAPTDSSLAADRGPLAYSSFTVSRPSGYRAGTVYYPTNAGGTVGAIAVVPGFTAYQSDINWWGPRLASWGFVVITIDTNSTLDQPSSRSRQQLAALDQVATLSRTSGSPIYNKVDTSRMGVMGWSMGGGGSLISTQNRPSLKASIPFAPWNGTSSFSSVTTPTFIIACQSDLIAPVASHANDFYNSLSRPPKMFLEIRGGSHYCANSSNGNKDVLGAKGVAWMKRY
B3: unnamed (protein)
chain: MHTKNYRNDARTVPKRSSLAKSLLAGGILLFSAAANADIIFQEDFNSSLGQFTASGSVTTGTYGARMAAAYGSGDAFITSAPISTVGFTNISLTWTRTTSGLDSGESGIAMFSTNGSTWTTIESVQSASGVRTVALPAGAAGQSALRLRFEVDGSLSSETYTVDTIRLEGTGSGGGCEPNCEPPPTGNPYERGPAPTTSSLEASTGPFQVATTTVSSTTADGYGSGTIYHPTGVTGPFAAIAICPGYTATQTSISQWGPRLASHGFVVITINTNSTSDQPPSRATQLMAALDQLVTFSNTSGHAIFGKVDGTRRGVMGHSMGGGGSLIAARDNPSLKAAIPMAPWYSSSTNFSAIRTPTMIVACESDSIARVSSHALPFYNSIPSTTPKAFAERNNGSHNCPINNNDWWPTLNKYGVAWMKRFLDNDTRYSPWLCGAPHEAVVDGTTYSRYLSNCPY
B4: unnamed (protein)
chain: MPGYQGTQQNLQWLAPRLASWGFTVINLGTNTLTDDPDSRATQIRNAGTQLLSFSATAGNPIANKVRSVTASTGLGVSGHSMGGGGTMVVLRDDSRFTAGAPLAPYHPSGAFSGVTKPTFFLVCASDVAAPGNTYAKPWYNSMASAEKLYMSVPGDHLCPMTGYGDKAKQGKYLVSWFSRWLKGDTSYSQFLCTDSIRNVDKNNTSIVTEWMDTCPY
B5: unnamed (protein)
chain: MPPHAARPGPAQNRRGRAMAVITPRRERSSLLSRALRFTAAAATALVTAVSLAAPAHAANPYERGPNPTDALLEARSGPFSVSEERASRFGADGFGGGTIYYPRENNTYGAVAISPGYTGTQASVAWLGERIASHGFVVITIDTNTTLDQPDSRARQLNAALDYMINDASSAVRSRIDSSRLAVMGHSMGGGGSLRLASQRPDLKAAIPLTPWHLNKNWSSVRVPTLIIGADLDTIAPVLTHARPFYNSLPTSISKAYLELDGATHFAPNIPNKIIGKYSVAWLKRFVDNDTRYTQFLCPGPRDGLFGEVEEYRSTCPF
B6: unnamed (protein)
chain: MQYASTPTLRHVAQFAKASVLAATVLLASVAHAQFEKGPNPTVSALERAGTFATRTTTVSSLSASGFGGGTIYYPTAAGSYGVIAISPGFTARQSSISWMGTRIASHGFVVITIDTNTTSDQPDSRARQLKAALDKVVSLSTGRTNVLYGKVDASRLAVAGHSMGGGGSLAAARDYPTLKAAVPLAPWHTTKSFSSVRVPTLIISGENDSVAGNSSHSIPFYNSLPSSTPKGYLELNAEDHFFPQDSGEYGLVGKYMISWFKRFVDSDTRYSPFLCGAEHQAQVRVTSRVSDSRTNCPY
B7: unnamed (protein)
chain: MQKIRSIGRAGRARWGRAALTAVALAAALSAAQAQTVVGPDPTAAALEAARGPFAVSTTTIKAPRGFRAGTVFFPASVTTPMAAVAVVPGFTARQSSINWLGPRLASWGFVVVTIDTNSTSDQPAARATQLMAALKQVVDESKVAGSPFFGKVDGARLGVMGHSMGGGGSLIAARNNPTLKAAIPMAPWNLGRNFSGVSVPTLVMACQNDAVAPVAQHASPFFESIPATVDKAFLEVRGGSHLCPTTASVANQPLLGKYSVAWMKRFMDNDTRFSAFLCDAPHQADLAGNKISAYRENCPY
B8: unnamed (protein)
chain: MTPTTHDDIDSHPSRTPAMRRAWPAFIAGTLLSLGAQAQVAIFKEDFQGGIGQFTSAGAASVSNGRVVMKGCLTCADGSVTSKEISTVGFDALRLSYDRTIVGLDAGEYGEVAYAVDGGEWTMLWGRLDNRSGRGTIDLPAAAANQKSLRLRYRIHASDSAETFTLDNVLLEGTPRSVTHPNPYAKGPDPTASALEAKAGPFTYAATVVPSGKASGYGGGTLYHPDKEVGPFAAIVIVPGYTATQESVKWWGPLLASHGFVVMVIDTLDNRDLPGSRATQLMAAVSQVKGFNTTQGHAIQGKVDPARVGIMGWSFGGGGTLLAAQAHPELKAAIPMAPKTWGETLKTADIKVPTLIIGCQADTTAPVKDWAIPFHEGIPGSVRKAYLEIAQGGHGCVSAQFNKKAADLAMMGKYGVSWMKRFLDEDTRYSPYLCGAPHQADVNGKTVVSAYRENCPY
B9: unnamed (protein)
chain: MVVIRTTNTTPTLQVTLMTTISVRKSALFVFAATAVLFSMSAFSFNPPTEPEPDPGPSPCQTDCGFTRGPNPTASYLEASTGPYAVRTTDVSRYVSGFGGGTIHYPAGTTGEMGAIAIVPGFFASESSIQWWGPRLASHGFVVITISTNSVFDQPGSRSAQLENALDYVISQSNSPTSGILGMVDSSRVGAMGWSMGGGGTLRLASSERLSAAIPLAPWNTGSNNFDQIDTPTLIFACENDGTAPVSQHASPFYNRIPGATAKAYFEINNGQHSCANGGGSNGGLLGKYGVSWMKLHIDKDDRYNRFLCGPNHAANSAISEYRGTCPY
B10: unnamed (protein)
chain: MKTSNSRRRRLAVAAGALLLAAAAHAQTNPYQKGPDPTSASLEATAGPFAVSTTSVSSSASGFGGGTIYYPTTAGSYGAIAISPGFTATQSSIAWLGRRLASHGFVVITIDTNSTLDQPASRATQLMAALNYVVNSSSSTVRSRVDANRLGVAGHSMGGGGTLIAARDNPTLKAAVPLTPWNTTKNFSSVTVPTLIIGAENDTVAPVSSHAIPFYNSLPSSTDKAYAELNGASHFAPNSSNTPIGKYSVAWMKRFVDNDTRYSPFLCGAPHTAYATSSAVSDYRSTCPY
B11: unnamed (protein)
chain: MVGYLEAVANYFPDTKWANYTTGYDGGTGGQTGFYNVMLQNSPLGALSWWNASCEFHDVMVEQAADTAARVPSNYRYYIGAGSAHTMYGSDKVYSDQSGGESQTILDWVNDMLAFDPAAADPGAPSWQSVECDDCEIVLPGDPLPRSLPTAPFALDIAGNPVIRCPPFPRGPDPTPAALEADLGPFPVRSYRPFFTPGFGAGTIWYPANPNPGPFAVIAVSPGFRAPESTMAWVGPRLASNGFIVITISTQSPFDNPTSRAKQLMAALRLVAAEGRRPSPIIGRVDGDRTGLIGHSMGGGGSLIAARDNPSVDAIIPLAPWNSPAKDFSAVEAASLIVACERDEIARVSQHAKPFYDSIPAADVNKAFLEFRGADHLCVMVGNDHYATLGKYIVAWMKAFLDSDTRYDEYLCG
B12: unnamed (protein)
chain: MFNQIGKKSALSLMAAGSLMFSATALAIGGGGSGGGNNGGGGGCEADCGYERGPDPSVSLLEASTGPFSVRTSNVSSSVRGFGGGTIHYPTNTTGTMAAIVVIPGFVSPESSIAWWGPKLASHGFVVMTIGTNSGFDQPASRASQLNNALDYLIEQNGSSRSPINGMIDTDRLGVMGWSMGGGGTLRVATEGRVSAAIPLAPWDSSSSQFRSIDTPTLIFACENDSTAPVRSHADPFYDAIPDSTAKAFVELDGGGHTCANGSSGFGGSYNDVLSRLGVSWMKLHLDKDQRYNQFVCGPNHESDRSISEYRGTCPY
B13: unnamed (protein)
chain: MKNAPIRSVLATCLVAAAASALAQTTAPTSASLNASAGPLSVSTASVTAPRGFGGGTIYYPTTQARYGVIAISPGFTATQISIAWLGRRIATHGFVVITLNTLTTLDQPDSRANQLMAALNHVINSSSSAVKARIDTSRLAVAGHSMGGGGALIAARDNPTLKASYPLTPWNINSAFTTVRVPTMIVGADGDTIAPVGTHARPFYAALPGATSKAYGELNGATHFSPNSTNTPIGRYGVAWMKRFLDGDTRYSTFLCGTEHTRYATALVFDRYNQNCPY
B14: unnamed (protein)
chain: MFIMIKKSELAKAIIVTGALVFSIPTLAEVTLSETTVSSIKSEATVSSTKKALPATPSDCIADSKITAVALSDTRDNGPFSIRTKRISRQSAKGFGGGTIHYPTNASGCGLLGAIAVVPGYVSYENSIKWWGPRLASWGFVVITINTNSIYDDPDSRAAQLNAALDNMIADDTVGSMIDPKRLGAIGWSMGGGGALKLATERSTVRAIMPLAPYHDKSYGEVKTPTLVIACEDDRIAETKKYANAFYKNAIGPKMKVEVNNGSHFCPSYRFNEILLSKPGIAWMQRYINNDTRFDKFLCANENYSKSPRISAYDYKDCP

substrate: BHET; conditions: 120 h

With B1 as the protein, how does the plate clearing read?
Its plate clearing is “not clears the plate”.

With B2 as the protein, how does the plate clearing read?
Its plate clearing is “not clears the plate”.

How did the plate clearing turn out when B3 was run?
Its plate clearing is “clears the plate (z > 3 vs empty vector)”.

Which plate clearing does the source give for B4 here?
Its plate clearing is “not clears the plate”.

For B5, which plate clearing is on record?
Its plate clearing is “not clears the plate”.

B6 was tested. Which plate clearing did it give?
Its plate clearing is “not clears the plate”.

How did the plate clearing turn out when B7 was run?
The plate clearing was “clears the plate (z > 3 vs empty vector)”.

Which plate clearing does the source give for B8 here?
Its plate clearing is “not clears the plate”.

How did the plate clearing turn out when B9 was run?
Its plate clearing is “not clears the plate”.

Which plate clearing does the source give for B10 here?
The plate clearing was “not clears the plate”.

With B11 as the protein, how does the plate clearing read?
The plate clearing was “not clears the plate”.

How did the plate clearing turn out when B12 was run?
Its plate clearing is “not clears the plate”.

For B13, which plate clearing is on record?
Its plate clearing is “not clears the plate”.

With B14 as the protein, how does the plate clearing read?
Its plate clearing is “not clears the plate”.
